Data taken from patent US20230028110A1 (ADAPTATE BIOTHERAPEUTICS, published 2023).

Columns and labels:
[1] = biological target: PD-1 on activated CD4 and CD8 T-cells; test: flow cytometry on anti-CD3/anti-CD28-activated CD4 and CD8 T-cells, anti-human IgG secondary antibody, % cells bound IgG
[2] = biological target: T1, L1 (DV1-GV4), soluble human Vδ1/Vγ4 γδ TCR heterodimer in leucine zipper format (human); test: SPR (Reichert 4SPR), antibody on Protein A chip, Vδ1 heterodimer at 6.25-100 nM as analyte
T1 construct: Biotinylated in the DELFIA ranking; also called Antigen L1 (TRDV1/TRGV4); human DV1-GV4; not shown: gamma chain: Vγ4 (TRGV4) domain on a TCR constant region, leucine zipper, histidine tag
T1 sequence (main, as listed by the source): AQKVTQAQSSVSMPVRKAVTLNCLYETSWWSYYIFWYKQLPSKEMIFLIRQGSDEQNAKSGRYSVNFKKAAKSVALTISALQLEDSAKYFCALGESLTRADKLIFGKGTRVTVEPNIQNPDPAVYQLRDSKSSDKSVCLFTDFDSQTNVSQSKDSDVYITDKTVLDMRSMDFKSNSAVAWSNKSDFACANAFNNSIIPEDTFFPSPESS

[3] = biological target: T2, Cyno DV1/GV77 antigen, recombinant cynomolgus Vδ1 heterodimer (cynomolgus monkey); test: as above
T2 construct: also called cyno TRDV1; Cyno DV1-77; not shown: delta CDR3/J, TCR constant region, zipper and tag; the whole gamma chain GV77
T2 sequence (delta, as listed by the source limits assumed): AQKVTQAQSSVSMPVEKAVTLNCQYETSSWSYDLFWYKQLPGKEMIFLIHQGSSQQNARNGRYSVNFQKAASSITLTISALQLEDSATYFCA

[4] = biological target: T3, Vδ1 chain of the γδ TCR on human Vδ1 γδ T cells (human); test: flow cytometry on Vδ1 γδ T-cells, anti-human IgG secondary antibody, % cells bound IgG
T3 construct: whole, on cells; also called cell surface Vδ1 TCR; Vδ1-positive γδ T cells
T3 sequence (A0A1B0GX56 22-115, stated change not applied): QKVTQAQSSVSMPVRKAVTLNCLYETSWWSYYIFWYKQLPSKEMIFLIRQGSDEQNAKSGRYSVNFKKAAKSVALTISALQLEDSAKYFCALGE

[5] = biological target: T1, L1 (DV1-GV4), soluble human Vδ1/Vγ4 γδ …; test: SPR (Reichert 4SPR), antibody on Protein A chip, antigen flown over
Protocol: (§1) Recombinant human Vδ1 heterodimer or human TIGIT was flown over the cell at a top concentration of 100 nM.

Recombinant human 4-1BB = biological target: T4, Recombinant human 4-1BB (human, UniProt Q07011 24-186); test: SPR, Reichert 4SPR; antibody captured on Protein A chip, human 4-1BB flown over
T4 construct: also called CD137
T4 sequence (Q07011 24-186 limits assumed): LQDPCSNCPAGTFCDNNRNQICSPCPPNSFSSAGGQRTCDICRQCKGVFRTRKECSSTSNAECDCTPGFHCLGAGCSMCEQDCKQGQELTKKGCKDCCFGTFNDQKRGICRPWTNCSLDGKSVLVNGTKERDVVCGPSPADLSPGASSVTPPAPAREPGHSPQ
Protocol: Recombinant human Vδ1 heterodimer or human 4-1BB was flown over the cell at a top concentration of 100 nM.

[6] = biological target: T3, Vδ1 chain of the γδ TCR on human Vδ1 γδ …; test: flow cytometry on Vδ1 γδ T-cells, anti-human IgG secondary antibody, % cells bound IgG; remark: listed apart in the source
Protocol: (§2) After washing, cells were incubated for a further 15 minutes with anti-human IgG secondary antibodies before washing and fixing. The amount of antibody bound to each cell type was determined by flow cytometry.

[7] = biological target: T1, L1 (DV1-GV4), soluble human Vδ1/Vγ4 γδ …; test: SPR (Reichert 4SPR), antibody on Protein A chip, antigen flown over; remark: listed apart in the source
Protocol: Recombinant human Vδ1 heterodimer or human FAPα was flown over the cell at a concentration of 100 nM with the following parameters: 180 s association, 480 s dissociation, flowrate 25 μL/min, running buffer PBS+0.05% Tween 20. All experiments were performed at room temperature.

[8] = biological target: T3, Vδ1 chain of the γδ TCR on human Vδ1 γδ …; test: cell-based or functional assay
[9] = biological target: T5, OX40 on activated CD4 T-cells; test: flow cytometry on anti-CD3/anti-CD28-activated CD4 T-cells, anti-human IgG secondary antibody, % cells bound IgG
T5 construct: also called OX40+ CD4 T-cells
T5 chain: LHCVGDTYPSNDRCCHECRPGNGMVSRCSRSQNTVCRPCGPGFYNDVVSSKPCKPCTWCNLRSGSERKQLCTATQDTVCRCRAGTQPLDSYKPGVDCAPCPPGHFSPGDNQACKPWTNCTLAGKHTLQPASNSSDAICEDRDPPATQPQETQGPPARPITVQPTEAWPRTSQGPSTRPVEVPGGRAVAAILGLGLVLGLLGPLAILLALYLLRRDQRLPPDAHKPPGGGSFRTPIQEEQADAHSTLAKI
Protocol: Initially CD4+ T-cells were negatively selected by magnetic sorting from PBMC buffy coats extracted from whole blood. Following activation by anti-CD3/anti-CD28 antibodies conjugated to Dynabeads (Invitrogen), cell surface expression of OX40 was elevated on CD4 T-cells. […] After washing, cells were incubated for a further 15 minutes with anti-human IgG secondary antibodies before washing and fixing. The amount of antibody bound to each cell type was determined by flow cytometry.

[10] = biological target: T3, Vδ1 chain of the γδ TCR on human Vδ1 γδ …; test: flow cytometry on Vδ1 γδ T-cells, anti-human IgG secondary antibody, % cells bound IgG; remark: listed apart in the source
[11] = biological target: T3, Vδ1 chain of the γδ TCR on human Vδ1 γδ …; test: cell-based or functional assay; remark: listed apart in the source
[12] = biological target: T3, Vδ1 chain of the γδ TCR on human Vδ1 γδ …; test: flow cytometry on Vδ1 γδ T-cells, anti-human IgG secondary antibody
Protocol: as §2

[13] = biological target: T3, Vδ1 chain of the γδ TCR on human Vδ1 γδ …; test: flow cytometry, Vδ1 γδ T cells of donor ATS006, mAb titrated up to about 500 nM at 4 C, anti-human IgG detection
Protocol: (§3) All incubation steps were performed at 4° C. and mAb binding was determined using flow cytometry to measure the median level of fluorescence. Logarithmic four parameter dose-response curves were fitted using GraphPad Prism 9. […] For Vδ1-positive γδ T cell, data is represented as the mean two donors.
(§4) A range of target cells were assayed to determine the specificity and affinity of Vδ1 mAb binding. This included expanded skin-derived Vδ1 γδ T-cells, HEK293T cells, Raji cells, and multiple leukocyte subsets within human primary blood mononuclear cells. Adherent or semi-adherent cells (skin-derived Vδ1 γδ T-cells, HEK293T) were detached from tissue culture flask and resuspended in PBS. Similarly, non-adherent cell types (Raji, PBMC), were harvested and resuspended in PBS. Cells were seeded at a final density of 100,000 cells per well in v-bottom 96-well plates. Cells underwent centrifugation and the cell pellets were resuspended in FcR blocking reagent according to the manufacturer's instructions, and incubated for 20 minutes at 4C prior to a further wash. […] To determine the quantity of mAb bound to the cell surface, the cells were then stained with a murine anti-human IgG secondary antibody, conjugated to APC (dilution: 1:100). For Vδ1 γδ T-cells, HEK293T and Raji, the cells were also stained solely with a viability dye.

[14] = biological target: T3, Vδ1 chain of the γδ TCR on human Vδ1 γδ …; test: flow cytometry, Vδ1 γδ T cells of donor TS164, mAb titrated up to about 500 nM at 4 C, anti-human IgG detection
Protocol: as §3, §4

[15] = biological target: T6, TIGIT on activated CD4 T-cells; test: flow cytometry, anti-human IgG secondary antibody, activated CD4 T-cells
T6 chain: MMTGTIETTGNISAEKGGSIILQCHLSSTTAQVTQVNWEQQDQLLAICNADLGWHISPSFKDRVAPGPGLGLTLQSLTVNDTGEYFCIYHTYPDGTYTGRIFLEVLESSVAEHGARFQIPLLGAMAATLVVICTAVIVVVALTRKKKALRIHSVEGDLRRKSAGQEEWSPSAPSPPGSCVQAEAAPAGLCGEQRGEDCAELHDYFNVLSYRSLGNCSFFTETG

Recombinant human PD-1 = biological target: T7, Recombinant human PD-1 (human, UniProt Q15116 25-167, limits assumed); test: SPR, Reichert 4SPR; antibody captured on Protein A chip, human PD-1 flown over
T7 construct: also called programmed cell death protein 1
T7 sequence (Q15116 25-167 limits assumed): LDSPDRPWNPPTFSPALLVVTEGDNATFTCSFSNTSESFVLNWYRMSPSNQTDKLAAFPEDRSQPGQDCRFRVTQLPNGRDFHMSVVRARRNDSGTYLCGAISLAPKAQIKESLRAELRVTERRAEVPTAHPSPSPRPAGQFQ
Protocol: (§5) Recombinant human Vδ1 heterodimer or human PD-1 was flown over the cell at a top concentration of 100 nM.

Recombinant human TIGIT = biological target: T8, Recombinant human TIGIT (human, UniProt Q495A1 22-141); test: SPR, Reichert 4SPR; antibody captured on Protein A chip, human TIGIT flown over
T8 construct: also called T cell immunoreceptor with Ig and ITIM domains
T8 sequence (looked up): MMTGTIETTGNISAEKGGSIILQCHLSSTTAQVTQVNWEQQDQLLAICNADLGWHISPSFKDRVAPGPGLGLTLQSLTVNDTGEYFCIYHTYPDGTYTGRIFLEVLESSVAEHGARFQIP
Protocol: as §1

[16] = biological target: T1, L1 (DV1-GV4), soluble human Vδ1/Vγ4 γδ …; test: SPR (Reichert 4SPR), antibody on Protein A chip, antigen flown over; remark: listed apart in the source
Protocol: as §5

Sequence of PD-1 on activated CD4 and CD8 T-cells (chain, as listed by the source limits assumed): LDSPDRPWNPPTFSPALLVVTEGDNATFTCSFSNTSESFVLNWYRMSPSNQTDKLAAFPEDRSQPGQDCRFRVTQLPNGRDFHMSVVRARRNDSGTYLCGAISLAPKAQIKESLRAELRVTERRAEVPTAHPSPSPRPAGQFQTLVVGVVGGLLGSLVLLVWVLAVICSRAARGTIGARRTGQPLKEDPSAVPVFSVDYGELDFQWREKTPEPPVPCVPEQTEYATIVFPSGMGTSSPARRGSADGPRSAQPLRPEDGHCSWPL

B1: ADT1-4-2 (antibody, IgG1, V domains shown)
VH: EVQLQQSGPGLVKPSQTLSLTCAISGDSVSSKSAAWNWIRQSPSRGLEWLGRTYYRSKWSTDYAASVKSRITINPDTSKNQLSLQLNSVTPEDTAVYYCARTWVGYVDRWGQGTLVTVSS
VL: DIQMTQSPPALSASVGDRVTITCRASQDINDWLAWYQHKPGKAPKLLIYDASSLESGVPLRFSGSGSGTEFTLTISSLQPDDFATYYCQQKYSAPQVTFGQGTRLEIK
notes: IgG1
binding result [1]: no binding (tested: 200 nM) | Kd [2]: 0.34 nM | Kd [3]: 2.6 nM | EC50 (read off the curve) [4]: ~0.2 nM | Kd [5]: 0.29 nM | binding result (Recombinant human 4-1BB): no binding | EC50 (read off the curve) [6]: ~0.2 nM | Kd [7]: 0.14 nM | IC50 (read off the curve), Vδ1 TCR downregulation, γδ T-cells with FAPα+ fibroblasts [8]: ~2 nM | binding result [9]: no binding (tested: 200 nM) | EC50 (read off the curve) [10]: ~0.2 nM | IC50 (read off the curve), Vδ1 TCR downregulation, γδ T-cells with activated OX40+ CD4 T-cells [11]: ~0.1 nM | EC50 (read off the curve) [12]: ~5 nM | EC50 (read off the curve) [13]: ~2 nM | EC50 (read off the curve) [14]: ~2 nM | binding result [15]: no binding (tested: 200 nM) | binding result (Recombinant human PD-1): no binding | binding result (Recombinant human TIGIT): no binding | Kd [16]: 0.29 nM
